Legend:
Assay type in all cases: cell-based, Saccharomyces cerevisiae
[1] = test system: BEM1-1; assay: DHFR-PCA on solid medium, bait BEM1-1 (Fig. 1B); details: bait BEM1-1, label = prey; for medrep (log2 median colony size normalized to plate background, PCA score): 2-8 replicates
Text: (§1) Supplement 41467_2021_21873_MOESM8_ESM.xlsx, sheet "Fig1B" | column: medsize; medrep; Ratio; Score

[2] = test system: BEM1-2; assay: DHFR-PCA on solid medium, bait BEM1-2 (Fig. 1B); details: bait BEM1-2, label = prey; for medrep (log2 median colony size normalized to plate background, PCA score): 2-8 replicates; for Ratio (SH3-deleted/WT medrep): only significant differences showed, PPIs completely lost have a ratio of 0.1 and the gained PPIs 2.5
Text: as §1

[3] = test system: BOI1; assay: DHFR-PCA on solid medium, bait BOI1 (Fig. 1B); details: bait BOI1, label = prey; for medrep (log2 median colony size normalized to plate background, PCA score): 3-8 replicates
Text: as §1

[4] = test system: BOI2; assay: DHFR-PCA on solid medium, bait BOI2 (Fig. 1B); details: bait BOI2, label = prey; 3-8 replicates
Text: as §1

[5] = only significant differences showed, PPIs completely lost have a ratio of 0.1 and the gained PPIs 2.5

B1: YDR379W (protein, UniProt Q06407 1-1009, looked up)
Rho-type GTPase-activating …: MSADPINDQSSLCVRCNKSIASSQVYELESKKWHDQCFTCYKCDKKLNADSDFLVLDIGTLICYDCSDKCTNCGDKIDDTAIILPSSNEAYCSNCFRCCRCSNRIKNLKYAKTKRGLCCMDCHEKLLRKKQLLLENQTKNSSKEDFPIKLPERSVKRPLSPTRINGKSDVSTNNTAISKNLVSSNEDQQLTPQVLVSQERDESSLNDNNDNDNSKDREETSSHARTVSIDDILNSTLEHDSNSIEEQSLVDNEDYINKMGEDVTYRLLKPQRANRDSIVVKDPRIPNSNSNANRFFSIYDKEETDKDDTDNKENEIIVNTPRNSTDKITSPLNSPMAVQMNEEVEPPHGLALTLSEATKENNKSSQGIQTSTSKSMNHVSPITRTDTVEMKTSTSSSTLRLSDNGSFSRPQTADNLLPHKKVAPSPNKKLSRSFSLKSKNFVHNLKSKTSEMLDPKHPHHSTSIQESDTHSGWGVSSTHTNIRKSKAKKNPVSRGQSDSTIYNTLPQHGNFTVPEFNHKKAQSSLGSISKKQNSNDTATNRRINGSFTSSSSGHHIAMFRTPPLESGPLFKRPSLSSESAHHRSSSLQTSRSTNALLEDDSTKVDATDESATSLEKDFYFTELTLRKLKLDVRELEGTKKKLLQDVENLRLAKERLLNDVDNLTREKDKQSASSRESLEQKENIATSITVKSPSSNSDRKGSISNASPKPRFWKIFSSAKDHQVGDLESQQRSPNSSSGGTTNIAQKEISSPKLIRVHDELPSPGKVPLSPSPKRLDYTPDGSHLYGSSLQARCAYEKSTVPIIIRCCIDRIEKDDIGLNMEGLYRKSGSQTLVEEIENEFAQNNSLHSDTLSPKLNALLNQDIHAVASVLKRYLRKLPDPVLSFSIYDALIDLVRNNQLIERLPLNNDKFLDSPQKVTIYEMVLKSLLEIFKILPVEHQEVLKVLAAHIGKVRRCSERNLMNLHNLSLVFAPSLIHDFDGEKDIVDMKERNYIVEFILGNYRDIFKQA
medrep (log2 median colony size normalized to plate background, PCA score) [1]: 2.957 | medrep (log2 median colony size normalized to plate background, PCA score) [2]: 2.957 | Ratio (SH3-deleted/WT medrep) [2]: 0.1 | medrep (log2 median colony size normalized to plate background, PCA score) [3]: 1.407 | Ratio (SH3-deleted/WT medrep) [3, 5]: 2.5 | medrep (log2 median colony size normalized to plate background, PCA score) [4]: 2.382

B2: YBL085W (protein, UniProt P38041 1-980, looked up)
BEM1-interacting protein 1: MSLEGNTLGKGAKSFPLYIAVNQYSKRMEDELNMKPGDKIKVITDDGEYNDGWYYGRNLRTKEEGLYPAVFTKRIAIEKPENLHKSPTQESGNSGVKYGNLNDSASNIGKVSSHQQENRYTSLKSTMSDIDKALEELRSGSVEQEVSKSPTRVPEVSTPQLQDEQTLIQEKTRNEENTTHDSLFSSTADLNLSSESLKNISKSNISTKSLEPSSESVRQLDLKMAKSWSPEEVTDYFSLVGFDQSTCNKFKEHQVSGKILLELELEHLKELEINSFGIRFQIFKEIRNIKSAIDSSSNKLDADYSTFAFENQAAQLMPAATVNRDEIQQQISSKCNKLSSESSDRKSSSVTTELQRPSSVVVNPNFKLHDPAEQILDMTEVPNLFADKDIFESPGRAPKPPSYPSPVQPPQSPSFNNRYTNNNARFPPQTTYPPKNKNPTVYSNGLIPNSSTSSDNSTGKFKFPAMNGHDSNSRKTTLTSATIPSINTVNTDESLPAISNISSNATSHHPNRNSVVYNNHKRTESGSSFVDLFNRISMLSPVKSSFDEEETKQPSKASRAVFDSARRKSSYGHSRDASLSEMKKHRRNSSILSFFSSKSQSNPTSPTKQTFTIDPAKMTSHSRSQSNSYSHARSQSYSHSRKHSLVTSPLKTSLSPINSKSNIALAHSETPTSSNNKEAVSQPSEGKHKHKHKHKSKHKHKNSSSKDGSSEEKSKKKLFSSTKESFVGSKEFKRSPSELTQKSTKSILPRSNAKKQQTSAFTEGIRSITAKESMQTADCSGWMSKKGTGAMGTWKQRFFTLHGTRLSYFTNTNDEKERGLIDITAHRVLPASDDDRLISLYAASLGKGKYCFKLVPPQPGSKKGLTFTEPRVHYFAVENKSEMKAWLSAIIKATIDIDTSVPVISSYATPTIPLSKAQTLLEEARLQTQLRDAEEEEGRDQFGWDDTQNKRNSNYPIEQDQFETSDYLESSAFEYPGGRL
medrep (log2 median colony size normalized to plate background, PCA score) [1]: 1.5623 | Ratio (SH3-deleted/WT medrep) [1, 5]: 0.5621 | medrep (log2 median colony size normalized to plate background, PCA score) [2]: 2.78 | Ratio (SH3-deleted/WT medrep) [2]: 0.1 | medrep (log2 median colony size normalized to plate background, PCA score) [3]: 1.7279 | medrep (log2 median colony size normalized to plate background, PCA score) [4]: 3.465

Source: article PMC7954794, “Protein context shapes the specificity of SH3 domain-mediated interactions in vivo” (Nature Communications, 2021)
